Source: patent US12427163B2, “Anti-VTCN1 antibodies and antibody drug conjugates” (Bluefin BioMedicine, Inc., priority 2017, dated 2025)
Entries after “also recorded” stand apart in the source; their conditions may differ.

Tests used:
[1] = system: 4T1 tumors; assay: 4T1 mouse triple negative breast cancer model in Balb/C mice; assay type: in vivo; details: 6D9 10 mg/kg, gemcitabine 75 mg/kg, i.p., days 5, 8, 12, 14, 16
Method: 6-8 week-old Balb/C mice were injected with 0.1 million of 4T1 cells in the mammary fat pad. On day 5, mice were randomized to 4 treatment groups, PBS, 6D9 (10 mg/kg), Gemcitabine (75 mg/kg), and 6D9 (10 mg/kg) plus gemcitabine (75 mg/kg). All treatments were by intraperitoneal injection and mice received a total of 5 treatments on days 5, 8, 12, 14, and 16.
The tumors and lymph nodes were harvested from these mice, and cells were dissociated and subjected to immune cell profiling by flow cytometry analysis.

[2] = system: Hepa1-6 tumors; assay: Hepa 1-6 mouse hepatoma tumor model; assay type: in vivo; details: 10 mg/kg ip. twice a week, 7 doses, from day 8
Method: The same proteomics and immunohistochemistry analysis used in Example 1 and Example 12 were also used to analyze tumors harvested from mice subcutaneously injected with Hepa 1-6 mouse hepatoma cells, and these tumors were fount to express VTCN1. To test the efficacy of anti-VTCN1 antibodies in this alternate syngeneic tumor model, 6-8 week old C57BL/6 female mice were injected with 2.5 million Hepa1-6 cells in matrigel. On day 8 after tumor cell implantation, when tumors were 100-200 mm3, tumor-bearing mice were randomized to two treatment groups and received either the isotype control, mIgG2a or the anti-VTCN1 antibody 6D9. Treatment was started on day 8 with mice receiving 10 mg/kg of antibody by ip. injection. Mice were treated at this dose level and route twice a week for a total of 7 doses. Tumor volume and body weight were recorded twice a week.

[3] = system: KLN205 tumors; assay: KLN205 syngeneic mouse lung squamous tumor model in DBA2 mice; assay type: in vivo; details: for KLN205 primary tumor growth, isotype comparison: Example 15, 200 μg (10 mg/kg) i.p. from day 9
Method: For the tumor study. 6-8 week-old female DBA2 mice were implanted subcutaneously in the right flank with 2.5×10^5 mouse lung squamous carcinoma KLN205 cells in 50% matrigel on day 0. Mice were treated with PBS as a vehicle control, a mouse IgG isotype control (10 mg/kg), or anti-VTCN1 6D9 antibody (10 mg/kg) on days 3, 6, 10, 13, 15, 17, 20, and 22 following tumor implantation by intraperitoneal (i.p.) injection. Tumors were measured using an electronic caliper twice a week and tumor volume was calculated using the formula 0.52*length*width*width. Mouse body weight was also measured and recorded.
6-8 week-old female DBA2 mice were implanted subcutaneously in the right flank with 2.5×10^5 mouse lung squamous carcinoma cell KLN205 cells in 50% matrigel on day 0. Tumors were measured on day 7 and mice are randomized to 7 treatment groups. The average size was 50 mm^3. The treatment groups were: PBS vehicle control, mIgG2a isotype control. 6D9, anti-mouse PD1 antibody RMP1-14, 6D9+RMP1-14, anti-mouse CTLA-4 antibody 9D9, and 6D9+9D9. The mice were treated on days 8, 11, 13, 15, 18, 20, 22, and 25. All antibodies were 10 mg/kg by i.p.
To test the activity of the 6D9 and 6D9-mIgG1 antibodies, 6-8 weeks old female DBA2 mice were implanted subcutaneously in the right flank with 0.2 million KLN205 cells in PBS on day 0. Mice were randomized on day 9 into 3 treatment groups, mIgG1 control. 6D9-mIgG1, 6D9-mIgG2a. Mice were treated on days 9, 11, 15, 18, and 22 by i.p. with 200 μg antibodies (10 mg/kg). […] However.

[4] = biological target: T1, human VTCN1 protein (Homo sapiens, UniProt Q7Z7D3); assay: Affinity to recombinant VTCN1-his by OCTET Red (Protein A biosensors); assay type: binding; details: Table 5
T1 construct: His
T1 sequence (Q7Z7D3 25-282): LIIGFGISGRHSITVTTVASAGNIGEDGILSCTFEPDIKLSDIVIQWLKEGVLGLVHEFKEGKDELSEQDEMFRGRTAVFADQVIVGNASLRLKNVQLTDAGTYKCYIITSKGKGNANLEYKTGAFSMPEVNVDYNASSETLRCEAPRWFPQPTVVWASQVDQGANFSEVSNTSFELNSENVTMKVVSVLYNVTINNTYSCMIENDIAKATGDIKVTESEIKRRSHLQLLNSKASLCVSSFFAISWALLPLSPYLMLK
Method: The affinity of antibodies to recombinant VTCN1 was determined on an OCTET™ Red (Pall, ForteBio) instrument. After loading reagents into a 96-well plate, the OCTET™ Red with Protein A-conjugated biosensors was programmed as follows: 30 seconds for baseline #1; 45 seconds to immobilize the antibody; 30 seconds for baseline #2; 300 seconds for association of antibody to recombinant VTCN1-his; and 300 seconds for dissociation of recombinant VTCN1-his from the antibody. Table 5 lists the affinity measured for selected antibodies.

[5] = biological target: T2, mouse VTCN1 protein (Mus musculus, UniProt Q7TSP5); assay: Cross-reactivity with mouse VTCN1 protein (method not given); assay type: binding
T2 construct: His
T2 sequence (Q7TSP5 25-257): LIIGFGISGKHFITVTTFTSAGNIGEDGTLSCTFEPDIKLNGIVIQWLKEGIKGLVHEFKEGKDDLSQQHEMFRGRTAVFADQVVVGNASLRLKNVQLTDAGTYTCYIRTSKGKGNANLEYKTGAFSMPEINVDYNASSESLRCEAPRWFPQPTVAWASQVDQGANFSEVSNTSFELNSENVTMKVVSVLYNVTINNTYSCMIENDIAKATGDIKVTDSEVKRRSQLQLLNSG

B1: 6D9: mouse anti-human VTCN1 antibody; VH SEQ ID NO: 113, VL SEQ ID NO: 117; 6D9 represents 6D9-mIgG2a if not otherwise specified (antibody, V domains shown)
VH: QIQLQQSGPGLVQPSQSLSITCTVSGFSLTSYGVQWIRQSPGKGLEWLGVIWSSGSTDYNAAFLSRLSFSKDNSKSQVFFQMNSLQADDSAIYYCARDVTTIVEGFAHWGQGTLVTVSA
VL: NIVMTQSPKSMSMSVGERVTLSCKASEKVGTYVSWYQQKPEQSPKLLIYGASNRYTGVPDRFTGSGSATDFTLTISSVQVEDLADYHCGQTYSYPFTFGSGTKLEIK
notes: mouse anti-human VTCN1 antibody; 6D9 represents 6D9-mIgG2a if not otherwise specified
- 4T1 tumor growth [1]: did not show any effect in 4T1 tumor growth
- Hepa1-6 tumor growth [2]: inhibits primary tumor growth; also recorded: inhibits tumor growth of Hepa1-6 tumors
- primary tumor growth of KLN205 tumors ([3]; Example 13, 10 mg/kg i.p. from day 3): inhibits primary tumor growth of KLN205 tumors
- mice surviving at the end of the study on day 36 ([3]; Example 14): one mouse survived
- KLN205 tumor growth, established tumors ([3]; Example 14, 10 mg/kg i.p. from day 8): delayed tumor growth
- mouse survival / time to tumor end point 1500 mm^3 ([3]; Example 15): prolongs the median time to endpoint irrespective of isotype
- KLN205 primary tumor growth, isotype comparison [3]: inhibits primary tumor growth
- KLN205 primary tumor growth, isotype comparison ([3]; listed as 6D9-mIgG2a): inhibit primary tumor growth
- Kdis (human) [4]: 1.52 × 10^−3
- Kon (human) [4]: 6.19 × 10^5
- cross-reactivity with mouse VTCN1 protein [5]: cross-reacts with mouse VTCN1 protein
